Test results from publication PMC5382584, “In search of tail-anchored protein machinery in plants: reevaluating the role of arsenite transporters” (Scientific Reports, 2017).
Where “and” joins values, the source holds several entries; their conditions need not be identical. Identical values can stand only once.

Target: the molecule itself
Assay: SEC; preparative size-exclusion chromatography of the purified protein, Superdex-200-16/600GL column; oligomeric state from peak positions

B1: Cr-ArsA2 (C. reinhardtii ArsA2), recombinant, purified (natural protein, UniProt A8IXB8 1-362, looked up)
chain: MAADMPDPTLQNVVDQKELKWIFVGGKGGVGKTTTSSSLAVALAESGTRNRVLIISTDPAHNLSDAFRQKFTKTPTLVNGFTNLFAMEVDPQPDIGEMEQLEWAQDSFLTELAGSIPGIDEAMSFAEVMKQVQTMDYDTIVFDTAPTGHTLRLLNFPTILEKGLSKLVALKGAMGGMMGQVTRMLGGMAGGGEGAADLPDQLLGKVEGMLDVVRKVSAQFKDPLLTTFVAVCIPEFLSLYETERLVQELAKFEIDCRNIVINQIIFPESVGGSRLLDARVRMQQKYLDQFYELYEDFHILQLPLLEEEVRGPEALKAFAVNLLKPYVPAPPTDAAARQAALVSEVAALKKRVAELEAALAKK
notes: ArsA2 of Chlamydomonas reinhardtii, full-length open reading frame, one ATPase domain; pET21 modified with a TEV site between the N-terminal 6His-tag and the polylinker; Seen as dimers and tetramers; also called Dimeric Cr-ArsA2; arsenite transporter ArsA2; source: E. coli BL21 (DE3), purified (Ni-NTA, size-exclusion chromatography)
stoichiometry N: 2 and 4
